Experimental findings from patent US20060147922A1, “Novel diagnostic and therapeutic methods and reagents therefor” (priority 2002, published 2006) are described below.

Assay [1] deals with GSTchk2-N (GST fused to chk2 aa 1-225) (human) (UniProt O96017). Description: pre-incubation of GSTchk2-N with the peptide, then pull-down of IVT 35S-EDD (competitor of EDD).
Assay [2] addresses GST fusion of mouse importin β1 (PTAC97) (mouse) (UniProt P70168). Briefly: GST-importin β pull-down of IVT 35S-EDD, autoradiography.

GST fusion of mouse importin β1 (PTAC97) (mouse), sequence (P70168 whole entry, the tested form may be a part): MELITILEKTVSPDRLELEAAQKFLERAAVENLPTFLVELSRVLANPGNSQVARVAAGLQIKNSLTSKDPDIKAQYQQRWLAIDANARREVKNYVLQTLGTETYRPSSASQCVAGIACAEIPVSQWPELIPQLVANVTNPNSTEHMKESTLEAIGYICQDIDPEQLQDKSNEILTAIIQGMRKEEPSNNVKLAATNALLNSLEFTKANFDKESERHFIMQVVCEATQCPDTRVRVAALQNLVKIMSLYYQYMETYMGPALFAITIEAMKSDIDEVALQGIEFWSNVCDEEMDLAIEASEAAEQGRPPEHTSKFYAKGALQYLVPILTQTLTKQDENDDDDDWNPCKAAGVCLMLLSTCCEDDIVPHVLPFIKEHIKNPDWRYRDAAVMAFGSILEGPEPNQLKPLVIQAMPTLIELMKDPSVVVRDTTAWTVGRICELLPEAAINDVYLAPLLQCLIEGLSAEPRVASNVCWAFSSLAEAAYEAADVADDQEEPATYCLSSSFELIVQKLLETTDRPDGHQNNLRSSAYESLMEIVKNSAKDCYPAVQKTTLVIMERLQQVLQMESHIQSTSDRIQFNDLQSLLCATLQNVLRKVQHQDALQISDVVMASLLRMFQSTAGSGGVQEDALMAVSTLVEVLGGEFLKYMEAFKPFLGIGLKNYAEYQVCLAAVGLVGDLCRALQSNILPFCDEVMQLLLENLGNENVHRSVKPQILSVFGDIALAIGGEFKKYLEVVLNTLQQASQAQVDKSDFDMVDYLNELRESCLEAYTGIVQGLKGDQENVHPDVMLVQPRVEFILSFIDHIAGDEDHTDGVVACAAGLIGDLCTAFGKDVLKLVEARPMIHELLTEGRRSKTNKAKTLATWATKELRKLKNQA
GSTchk2-N (GST fused to chk2 aa 1-225) (human), sequence (O96017 1-225): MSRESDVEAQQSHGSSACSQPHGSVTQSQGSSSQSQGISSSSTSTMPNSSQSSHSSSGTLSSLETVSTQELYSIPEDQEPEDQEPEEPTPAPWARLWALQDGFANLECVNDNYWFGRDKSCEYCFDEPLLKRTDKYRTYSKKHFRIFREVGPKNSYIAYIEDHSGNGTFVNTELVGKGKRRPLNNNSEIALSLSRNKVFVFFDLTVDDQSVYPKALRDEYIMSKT

For the substance “FHA-binding phosphopeptide RWFDT(P)YLIRR”, the peptide concentration that abolished binding of EDD to chk2-N in assay [1] was more than 50 µM. Regarding “EDD protein, full length (aa 1-2799) (from UniProt O95071 1-2799)”, the percent of the available EDD protein pulled down in assay [2] worked out at 5%.
